Measured values as given in the Human Domainome abundance scans (Beltran et al. 2025).
± gives the uncertainty stated by the source.

B1: TOX high mobility group box family member 3, residues 256 to 323; numbered along this chain, O15405 (parent)
chain: QKPVSAYALFFRDTQAAIKGQNPNATFGEVSKIVASMWDSLGEEQKQVYKRKTEAAKKEYLKALAAYR

Variants of: B1
Assay: abundance fitness (aPCA) (normalised: wild type 0, dead -1); higher = more abundant; growth selection in yeast, the domain comes from the species named
Conditions: Homo sapiens
For QKPVSAYALFFRDTQAAIKGQNPNATFGEVSKIVASMWDSLGEEQKQVYKRKTEAAKKEYQKALAAYR, the abundance fitness was 0.146 ± 0.16. For QKVVSAYALFFRDTQAAIKGQNPNATFGEVSKIVASMWDSLGEEQKQVYKRKTEAAKKEYLKALAAYR, the abundance fitness was -0.14 ± 0.088. Variant QKPVSAYALFFRDTQAAIKGQNPNQTFGEVSKIVASMWDSLGEEQKQVYKRKTEAAKKEYLKALAAYR has an abundance fitness of -0.328 ± 0.13. Variant QKPVSAYALFFRDTWAAIKGQNPNATFGEVSKIVASMWDSLGEEQKQVYKRKTEAAKKEYLKALAAYR has an abundance fitness of -0.194 ± 0.075. With QKPVSAYALFFRDTQAAIKGQNPNATFNEVSKIVASMWDSLGEEQKQVYKRKTEAAKKEYLKALAAYR the abundance fitness was 0.117 ± 0.16. QKPVSAYALFFRDTQAAIKGQNINATFGEVSKIVASMWDSLGEEQKQVYKRKTEAAKKEYLKALAAYR showed an abundance fitness of -0.521 ± 0.17. With QKPVSAYALFFRDTQAAIKGQNQNATFGEVSKIVASMWDSLGEEQKQVYKRKTEAAKKEYLKALAAYR the abundance fitness was -0.241 ± 0.088. For QKPVSAYALFFRDTQAAIKGQNPNATFGEVSKIVASMWDSLGEEQKQVYKRKTEAAKKEYLKALKAYR, the abundance fitness was 0.036 ± 0.081. Variant QKPVSAYELFFRDTQAAIKGQNPNATFGEVSKIVASMWDSLGEEQKQVYKRKTEAAKKEYLKALAAYR has an abundance fitness of -0.376 ± 0.18. QKPVSAYKLFFRDTQAAIKGQNPNATFGEVSKIVASMWDSLGEEQKQVYKRKTEAAKKEYLKALAAYR showed an abundance fitness of 0.009 ± 0.074. QKPVSAYSLFFRDTQAAIKGQNPNATFGEVSKIVASMWDSLGEEQKQVYKRKTEAAKKEYLKALAAYR gave an abundance fitness of 0.002 ± 0.065. QKPVSAYMLFFRDTQAAIKGQNPNATFGEVSKIVASMWDSLGEEQKQVYKRKTEAAKKEYLKALAAYR showed an abundance fitness of 0.219 ± 0.056. With QKPVSAYFLFFRDTQAAIKGQNPNATFGEVSKIVASMWDSLGEEQKQVYKRKTEAAKKEYLKALAAYR the abundance fitness was -0.33 ± 0.18. Variant QKPVSAYALFFRDTQAAIKGQNPNATFGEVSKIVASMWDLLGEEQKQVYKRKTEAAKKEYLKALAAYR has an abundance fitness of -0.258 ± 0.055. With QKPVSAYALFFRDTQAAIEGQNPNATFGEVSKIVASMWDSLGEEQKQVYKRKTEAAKKEYLKALAAYR the abundance fitness was -0.256 ± 0.21. Work on QKPVSAYALFFRDTQAAIKGQNPNATFGEVSKIVASMWDSLGEEQKQVYKRKTEFAKKEYLKALAAYR yielded an abundance fitness of -0.211 ± 0.077. With QKPVSAYALFFRDTQAAIKGQNPNATFGEVSKIVASMFDSLGEEQKQVYKRKTEAAKKEYLKALAAYR the abundance fitness was -0.716 ± 0.2. QKPVSAYALFFRDTQAAIKGQNPNATFGEVSKIVASMWDSLGEEQKQVYKRKTFAAKKEYLKALAAYR gave an abundance fitness of -0.193 ± 0.072. Variant QKPVSAYALFFRDTQAAIKGQNPNATFGEVSKIVASMWDSLGEEQKQVYKRKTMAAKKEYLKALAAYR has an abundance fitness of -0.161 ± 0.064. QKPVSAYALFFRDTQAAIKGQNPNATFGEVSKIVASMWDSLGEEQKQVYKRKTRAAKKEYLKALAAYR gave an abundance fitness of -0.203 ± 0.048. QKPVSAYALFFRDTQAAIKGQNPNATFGEVSKIVASMWDSLGEEQKQVYKRKTTAAKKEYLKALAAYR showed an abundance fitness of -0.237 ± 0.064. Work on QKPVSAYALFFRDTQAAIKGQNPWATFGEVSKIVASMWDSLGEEQKQVYKRKTEAAKKEYLKALAAYR yielded an abundance fitness of -0.509 ± 0.091. For QKPVSAYALFFRDTQAAIKGQNPIATFGEVSKIVASMWDSLGEEQKQVYKRKTEAAKKEYLKALAAYR, the abundance fitness was -0.879 ± 0.27. Variant QSPVSAYALFFRDTQAAIKGQNPNATFGEVSKIVASMWDSLGEEQKQVYKRKTEAAKKEYLKALAAYR has an abundance fitness of 0.069 ± 0.05. For QTPVSAYALFFRDTQAAIKGQNPNATFGEVSKIVASMWDSLGEEQKQVYKRKTEAAKKEYLKALAAYR, the abundance fitness was -0.294 ± 0.081. QKPVSAYALFDRDTQAAIKGQNPNATFGEVSKIVASMWDSLGEEQKQVYKRKTEAAKKEYLKALAAYR showed an abundance fitness of -0.746 ± 0.15. QKPVSAYALFFRDTQAAIKGQNPNATFGEVSKIVDSMWDSLGEEQKQVYKRKTEAAKKEYLKALAAYR showed an abundance fitness of -0.275 ± 0.12. Work on QKPVSAYALFFRDTQAAIKGQNPNATFGEVSKIVCSMWDSLGEEQKQVYKRKTEAAKKEYLKALAAYR yielded an abundance fitness of -0.275 ± 0.088. In the case of QKPVSAYALFFRDTQAGIKGQNPNATFGEVSKIVASMWDSLGEEQKQVYKRKTEAAKKEYLKALAAYR, the abundance fitness is reported as -0.19 ± 0.079. QKPVSAYALFFRDTQAWIKGQNPNATFGEVSKIVASMWDSLGEEQKQVYKRKTEAAKKEYLKALAAYR gave an abundance fitness of -0.234 ± 0.08. QKPVSAYALFFRDTQAKIKGQNPNATFGEVSKIVASMWDSLGEEQKQVYKRKTEAAKKEYLKALAAYR showed an abundance fitness of 0.196 ± 0.085. For QKPVSAYALFFRDTQAAIKGQNPNATFGEVSKIVASMWDSLGEEQKQVYKRKTEAAKKEYLKALAAVR, the abundance fitness was 0.323 ± 0.069. QKPVSAYALFFRDTQAAIKGQNPNATFGEVSKIVASMWDSLGEEQKQVYKRKTEAAKKEYLKALAAFR showed an abundance fitness of -0.106 ± 0.077. QKPVSAYALFFRDTQAAIKGQNPNATVGEVSKIVASMWDSLGEEQKQVYKRKTEAAKKEYLKALAAYR showed an abundance fitness of 0.004 ± 0.049. In the case of QKPVSAYALFFRDTQAAIKGQNPNATFGEVSKIVASMWDSLGEEEKQVYKRKTEAAKKEYLKALAAYR, the abundance fitness is reported as 0.092 ± 0.13. With QKPVSAYALFFRDTQAAIKGQNPNATFGEVSKIVASMWDSLGEEWKQVYKRKTEAAKKEYLKALAAYR the abundance fitness was -0.642 ± 0.095. For QKPVSAYALFFRDTQAAIKGQNPNATFGEVSKIVASAWDSLGEEQKQVYKRKTEAAKKEYLKALAAYR, the abundance fitness was -0.063 ± 0.071. With QKPVSAYALFFRDTQAAIKGQNPNATFGEVGKIVASMWDSLGEEQKQVYKRKTEAAKKEYLKALAAYR the abundance fitness was -0.224 ± 0.057. Work on QKPVSAYALFFRDTQAAIKGQNPNATFGEVPKIVASMWDSLGEEQKQVYKRKTEAAKKEYLKALAAYR yielded an abundance fitness of -1 ± 0.22.
